According to paper PMC5775257, “Binding of NUFIP2 to Roquin promotes recognition and regulation of ICOS mRNA” (Nature Communications, 2018):

T1: mouse Roquin-1 (aa 2–441) (mouse, UniProt Q4VGL6 2-441)
T1 construct: mouse Roquin-1 aa 2-441; also called Roquin (aa 2–441)
T1 sequence (looked up): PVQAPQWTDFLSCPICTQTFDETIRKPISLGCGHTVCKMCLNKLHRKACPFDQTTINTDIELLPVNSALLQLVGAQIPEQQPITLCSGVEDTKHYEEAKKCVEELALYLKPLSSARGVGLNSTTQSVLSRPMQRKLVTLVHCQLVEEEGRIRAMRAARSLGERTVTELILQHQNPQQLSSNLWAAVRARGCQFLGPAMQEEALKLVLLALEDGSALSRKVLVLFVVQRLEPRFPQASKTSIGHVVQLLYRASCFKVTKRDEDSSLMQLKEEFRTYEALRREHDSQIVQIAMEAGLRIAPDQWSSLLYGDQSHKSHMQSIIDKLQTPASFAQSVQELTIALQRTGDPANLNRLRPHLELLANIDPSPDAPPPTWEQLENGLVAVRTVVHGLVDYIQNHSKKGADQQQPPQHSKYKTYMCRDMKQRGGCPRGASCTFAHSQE

B1: human NUFIP2 (aa 255–411) (domain or fragment, UniProt Q7Z417 255-411, looked up)
chain: KQGLETFKPDYSEQKGNRVDGSKPIWKYETGPGGTSRGKPAVGDMLRKSSDSKPGVSSKKFDDRPKGKHASAVASKEDSWTLFKPPPVFPVDNSSAKIVPKISYASKVKENLNKTIQNSSVSPTSSSSSSSSTGETQTQSSSRLSQVPMSALKSVTS
notes: His6-SUMO cleaved off by PreScission protease; source: E. coli BL21(DE3)pRIL, purified (HisTrap, ion exchange, Superdex 75); not shown: His6-SUMO, N-terminal, cleaved

Tests used:
[1] = biological target: T1, mouse Roquin-1 (aa 2–441); test: SPR; BIACORE 3000; Roquin (aa 2–441) immobilised on CM5 chip by amine coupling; NUFIP2 (aa 255–411) injected at 0.063-4 μM, 30 μL/min, 20 °C; 150 mM NaCl, 0.05% Tween20, 10 mM HEPES; steady-state analysis; settings: both partners purified
[2] = biological target: B1; test: SPR; BIACORE 3000; Roquin (aa 2–441) immobilised; 4 μM NUFIP2 (aa 255–411) injected together with 0.016, 0.063, 0.25 or 1 μM FMRP (aa 1–132); 250 mM NaCl, 0.05% Tween20, 10 mM HEPES; settings: both partners purified

Kd [1] [µM] | binding result [2] | Binder
0.182 |  | B1
 | binds | mouse Fmrp (aa 1–132) (domain or fragment, His6-GST cut off by PreScission protease; source: E. coli BL21Star(DE3), purified (HisTrap, GSTTrap, Superdex 75); not shown: His6-GST, N-terminal, cleaved) not shown
